Reference: the supplement of paper PMC9112550, “Optimization of the antimicrobial peptide Bac7 by deep mutational scanning” (BMC Biology, 2022)

System: Escherichia coli TOP10
Assay: shrunken log2 fold change of peptide-encoding DNA abundance (4.5 h post-induction vs induction); higher = less antimicrobial activity (less host growth inhibition)
Settings: time post-induction: 4.5 h; library: site-saturation at positions 5, 18, 19, 20
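Also: peptides expressed intracellularly from a pBAD plasmid library in pooled LB shake-flask culture, induced with 0.3% L-arabinose, DNA abundance read by NGS, three biological replicates, DESeq2 with apeglm shrinkage.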

Row | Sequence | shrunken log2 fold change
1 | RRIRPRPPRLPRPRPRPTLYPRP | 0.221
2 | RRIRPRPPRLPRPRPRPTMIPRP | -0.239
3 | RRIRPRPPRLPRPRPRPTNFPRP | 0.221
4 | RRIRPRPPRLPRPRPRPTNQPRP | -0.182
5 | RRIRPRPPRLPRPRPRPTPFPRP | 0.269
6 | RRIRPRPPRLPRPRPRPTPGPRP | 0.533
7 | RRIRPRPPRLPRPRPRPTQIPRP | 0.13
8 | RRIRPRPPRLPRPRPRPTSAPRP | 0.156
9 | RRIRPRPPRLPRPRPRPTTTPRP | 0.142
10 | RRIRPRPPRLPRPRPRPTVGPRP | 0.555
11 | RRIRPRPPRLPRPRPRPTYAPRP | 0.133
12 | RRIRPRPPRLPRPRPRPTYPPRP | -0.137
13 | RRIRPRPPRLPRPRPRPVCEPRP | 0.227
14 | RRIRPRPPRLPRPRPRPVCQPRP | -0.1
15 | RRIRPRPPRLPRPRPRPVDGPRP | 0.0909
16 | RRIRPRPPRLPRPRPRPVDIPRP | -0.288
17 | RRIRPRPPRLPRPRPRPVESPRP | -0.0537
18 | RRIRPRPPRLPRPRPRPVFYPRP | -0.316
19 | RRIRPRPPRLPRPRPRPVGRPRP | 0.0963
20 | RRIRPRPPRLPRPRPRPVHLPRP | 0.179
21 | RRIRPRPPRLPRPRPRPVIAPRP | 0.0792
22 | RRIRPRPPRLPRPRPRPVKIPRP | 0.154
23 | RRIRPRPPRLPRPRPRPVKVPRP | 0.161
24 | RRIRPRPPRLPRPRPRPVLCPRP | 0.282
25 | RRIRPRPPRLPRPRPRPVLHPRP | -0.1

Row | Sequence | shrunken log2 fold change
26 | RRIRPRPPRLPRPRPRPVMWPRP | 0.385
27 | RRIRPRPPRLPRPRPRPVNPPRP | 0.0675
28 | RRIRPRPPRLPRPRPRPVQNPRP | -0.234
29 | RRIRPRPPRLPRPRPRPVQQPRP | 0.378
30 | RRIRPRPPRLPRPRPRPVRIPRP | 0.0103
31 | RRIRPRPPRLPRPRPRPVRLPRP | 0.238
32 | RRIRPRPPRLPRPRPRPVRTPRP | 0.385
33 | RRIRPRPPRLPRPRPRPVSWPRP | 0.704
34 | RRIRPRPPRLPRPRPRPVTVPRP | -0.163
35 | RRIRPRPPRLPRPRPRPVVAPRP | 0.578
36 | RRIRPRPPRLPRPRPRPVVKPRP | -0.181
37 | RRIRPRPPRLPRPRPRPVVLPRP | 0.00791
38 | RRIRPRPPRLPRPRPRPVWDPRP | 0.212
39 | RRIRPRPPRLPRPRPRPVWKPRP | 0.218
40 | RRIRPRPPRLPRPRPRPVYCPRP | -0.375
41 | RRIRPRPPRLPRPRPRPVYDPRP | -0.711
42 | RRIRPRPPRLPRPRPRPVYNPRP | 0.88
43 | RRIRPRPPRLPRPRPRPWCHPRP | -0.563
44 | RRIRPRPPRLPRPRPRPWDDPRP | -0.144
45 | RRIRPRPPRLPRPRPRPWDGPRP | -0.0681
46 | RRIRPRPPRLPRPRPRPWDPPRP | -0.0945
47 | RRIRPRPPRLPRPRPRPWECPRP | -0.0846
48 | RRIRPRPPRLPRPRPRPWFKPRP | -0.125
49 | RRIRPRPPRLPRPRPRPWGDPRP | -0.0121
50 | RRIRPRPPRLPRPRPRPWIAPRP | 0.0544

Row | Sequence | shrunken log2 fold change
51 | RRIRPRPPRLPRPRPRPWIIPRP | -0.919
52 | RRIRPRPPRLPRPRPRPWKRPRP | -0.0317
53 | RRIRPRPPRLPRPRPRPWLDPRP | 0.164
54 | RRIRPRPPRLPRPRPRPWNPPRP | -0.496
55 | RRIRPRPPRLPRPRPRPWQFPRP | 0.00677
56 | RRIRPRPPRLPRPRPRPWRAPRP | 0.185
57 | RRIRPRPPRLPRPRPRPWRDPRP | -0.00123
58 | RRIRPRPPRLPRPRPRPWRNPRP | 0.0809
59 | RRIRPRPPRLPRPRPRPWVNPRP | -0.11
60 | RRIRPRPPRLPRPRPRPWYNPRP | -0.184
61 | RRIRPRPPRLPRPRPRPYDGPRP | -0.7
62 | RRIRPRPPRLPRPRPRPYDLPRP | -0.293
63 | RRIRPRPPRLPRPRPRPYEDPRP | -0.163
64 | RRIRPRPPRLPRPRPRPYFRPRP | -0.463
65 | RRIRPRPPRLPRPRPRPYGHPRP | 0.0138
66 | RRIRPRPPRLPRPRPRPYGLPRP | -0.857
67 | RRIRPRPPRLPRPRPRPYGPPRP | -0.37
68 | RRIRPRPPRLPRPRPRPYGRPRP | -0.213
69 | RRIRPRPPRLPRPRPRPYGWPRP | -0.248
70 | RRIRPRPPRLPRPRPRPYHDPRP | -0.0378
71 | RRIRPRPPRLPRPRPRPYIRPRP | -0.297
72 | RRIRPRPPRLPRPRPRPYKEPRP | -0.382
73 | RRIRPRPPRLPRPRPRPYKFPRP | -0.178
74 | RRIRPRPPRLPRPRPRPYLRPRP | 0.0823
75 | RRIRPRPPRLPRPRPRPYMHPRP | -0.493

Row | Sequence | shrunken log2 fold change
76 | RRIRPRPPRLPRPRPRPYMLPRP | -0.781
77 | RRIRPRPPRLPRPRPRPYNFPRP | -0.289
78 | RRIRPRPPRLPRPRPRPYPIPRP | -0.175
79 | RRIRPRPPRLPRPRPRPYPPPRP | -0.537
80 | RRIRPRPPRLPRPRPRPYQQPRP | -0.139
81 | RRIRPRPPRLPRPRPRPYQRPRP | 0.0369
82 | RRIRPRPPRLPRPRPRPYRCPRP | -0.173
83 | RRIRPRPPRLPRPRPRPYTAPRP | -1.06
84 | RRIRPRPPRLPRPRPRPYTFPRP | -0.504
85 | RRIRPRPPRLPRPRPRPYVSPRP | 0.00613
86 | RRIRPRPPRLPRPRPRPYVTPRP | -0.239
87 | RRIRPRPPRLPRPRPRPYYTPRP | -0.379
88 | RRIRQRPPRLPRPRPRPAAIPRP | 0.111
89 | RRIRQRPPRLPRPRPRPADDPRP | -0.01
90 | RRIRQRPPRLPRPRPRPAEDPRP | 0.0312
91 | RRIRQRPPRLPRPRPRPAEPPRP | 0.157
92 | RRIRQRPPRLPRPRPRPAFAPRP | 0.344
93 | RRIRQRPPRLPRPRPRPAHLPRP | 0.362
94 | RRIRQRPPRLPRPRPRPAIPPRP | 0.0602
95 | RRIRQRPPRLPRPRPRPALFPRP | -0.0103
96 | RRIRQRPPRLPRPRPRPAMWPRP | 0.579
97 | RRIRQRPPRLPRPRPRPANTPRP | -0.118
98 | RRIRQRPPRLPRPRPRPAPMPRP | 0.538
99 | RRIRQRPPRLPRPRPRPAPYPRP | 0.204
100 | RRIRQRPPRLPRPRPRPARGPRP | 0.126

Row | Sequence | shrunken log2 fold change
101 | RRIRQRPPRLPRPRPRPARLPRP | 0.0512
102 | RRIRQRPPRLPRPRPRPASWPRP | 0.00959
103 | RRIRQRPPRLPRPRPRPATHPRP | -0.28
104 | RRIRQRPPRLPRPRPRPAVCPRP | -0.197
105 | RRIRQRPPRLPRPRPRPAVLPRP | 0.0386
106 | RRIRQRPPRLPRPRPRPAVWPRP | 0.939
107 | RRIRQRPPRLPRPRPRPAWWPRP | 0.95
108 | RRIRQRPPRLPRPRPRPCAEPRP | -0.135
109 | RRIRQRPPRLPRPRPRPCAMPRP | -0.0872
110 | RRIRQRPPRLPRPRPRPCCAPRP | 0.0773
111 | RRIRQRPPRLPRPRPRPCDTPRP | -0.435
112 | RRIRQRPPRLPRPRPRPCEQPRP | -0.105
113 | RRIRQRPPRLPRPRPRPCERPRP | -0.0133
114 | RRIRQRPPRLPRPRPRPCESPRP | -0.0107
115 | RRIRQRPPRLPRPRPRPCFQPRP | -0.252
116 | RRIRQRPPRLPRPRPRPCGMPRP | -0.199
117 | RRIRQRPPRLPRPRPRPCGTPRP | 0.0105
118 | RRIRQRPPRLPRPRPRPCHCPRP | -0.00822
119 | RRIRQRPPRLPRPRPRPCKYPRP | -0.0164
120 | RRIRQRPPRLPRPRPRPCMGPRP | -0.124
121 | RRIRQRPPRLPRPRPRPCMSPRP | -0.234
122 | RRIRQRPPRLPRPRPRPCMVPRP | -0.0725
123 | RRIRQRPPRLPRPRPRPCNNPRP | -0.255
124 | RRIRQRPPRLPRPRPRPCPWPRP | 0.0978
125 | RRIRQRPPRLPRPRPRPCQFPRP | 0.0287

Row | Sequence | shrunken log2 fold change
126 | RRIRQRPPRLPRPRPRPCRLPRP | -0.15
127 | RRIRQRPPRLPRPRPRPCTCPRP | -0.0638
128 | RRIRQRPPRLPRPRPRPCTIPRP | -0.00957
129 | RRIRQRPPRLPRPRPRPCTLPRP | -0.56
130 | RRIRQRPPRLPRPRPRPCVVPRP | 0.0959
131 | RRIRQRPPRLPRPRPRPCWAPRP | -0.139
132 | RRIRQRPPRLPRPRPRPCWFPRP | -0.257
133 | RRIRQRPPRLPRPRPRPDCGPRP | 2.88
134 | RRIRQRPPRLPRPRPRPDCQPRP | -0.0643
135 | RRIRQRPPRLPRPRPRPDDQPRP | 0.164
136 | RRIRQRPPRLPRPRPRPDFIPRP | -0.345
137 | RRIRQRPPRLPRPRPRPDHHPRP | -0.308
138 | RRIRQRPPRLPRPRPRPDHQPRP | -0.126
139 | RRIRQRPPRLPRPRPRPDKFPRP | -0.513
140 | RRIRQRPPRLPRPRPRPDLAPRP | -0.0142
141 | RRIRQRPPRLPRPRPRPDLKPRP | -0.0178
142 | RRIRQRPPRLPRPRPRPDLMPRP | -0.08
143 | RRIRQRPPRLPRPRPRPDLTPRP | 0.00424
144 | RRIRQRPPRLPRPRPRPDMLPRP | 0.0939
145 | RRIRQRPPRLPRPRPRPDNCPRP | 0.0333
146 | RRIRQRPPRLPRPRPRPDQCPRP | -0.0972
147 | RRIRQRPPRLPRPRPRPDQIPRP | 0.00408
148 | RRIRQRPPRLPRPRPRPDQPPRP | -0.0438
149 | RRIRQRPPRLPRPRPRPDRWPRP | 0.37
150 | RRIRQRPPRLPRPRPRPDSKPRP | -0.146
